Data as given in the supplement of paper PMC10567573.

B1: PTPRD (parent)
chain: FICQATGDPRPKIVWNKKGKKVSN

Variants of: B1
Experiment: protein stability index of a GFP-peptide fusion (GPS, HEK-293T) (PSI 1-6); higher = more stable
Conditions: c terminus: a fixed tail appended
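Further: lentivirally expressed fusions sorted by FACS into six bins by GFP to DsRed ratio, PSI derived from sequencing read proportions per bin multiplied by bin number.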

Protein stability index of substitutions, site by site:
Q4: D 1.87, E 2.18, F 2.25, G 1.88, H 2.33, I 1.84, K 2.42, L 2.17, M 1.29, N 2.03, P 2.14, R 1.56, S 1.58, T 3.05, V 2.08, W 2.95, Y 1.37
A5: C 2.12, D 2.39, E 1.92, F 2.19, G 2.07, H 2.2, I 1.77, K 3.03, L 2.01, M 2.02, N 2.09, P 2.04, Q 1.95, R 2.24, S 1.83, T 2.08, V 2.26, W 2.35, Y 2.25
T6: A 1.92, C 2.81, D 1.71, E 2.05, F 1.68, G 2.18, H 1.68, I 1.61, K 2.02, L 1.47, M 1.65, N 1.78, P 1.96, Q 2.17, R 2, S 2.94, V 1.91, Y 2.24
G7: A 2.15, C 1.87, D 1.93, E 2.81, F 2.69, H 2.16, I 2.01, K 2.39, L 2.19, M 1.9, N 1.97, P 2.32, Q 2.22, R 1.92, S 2.02, T 2.01, V 1.81, W 3.96, Y 1.7
D8: A 2.04, C 1.94, E 1.91, F 1.85, G 1.98, H 1.6, I 2.33, K 2.5, L 1.5, M 1.8, N 2.16, P 1.8, Q 1.77, R 2.24, S 1.92, T 2.11, Y 1.45
P9: A 1.84, C 1.49, D 2.14, E 1.99, F 1.99, G 1.4, H 2.29, I 2.21, K 1.54, L 2.49, M 2.36, N 2.31, Q 1.83, S 2, T 1.88, V 2.27, W 1.53, Y 1.53
R10: A 1.98, C 1.84, D 1.82, E 1.61, F 1.89, H 1.79, I 2.08, K 2.95, L 1.83, M 2.58, N 1.83, P 2.41, Q 2.06, S 1.81, T 2, V 1.88
P11: A 2.34, C 1.32, D 2.11, E 2.88, F 1.52, G 2.04, H 2.4, I 2.31, K 1.45, L 3.08, M 1.03, N 1.87, Q 2.19, R 2.5, S 2.18, T 2.07, V 1.18, W 1.87, Y 2.31
K12: A 1.87, C 1.9, D 1.18, E 1.52, G 2.28, H 1.86, I 1.89, L 3.35, M 1.58, N 1.95, P 1.96, Q 1.94, R 1.44, S 2.17, T 2.26, V 1.61, W 1.6, Y 1.41
I13: A 1.83, C 1.99, E 2.1, F 1.62, G 2.6, H 1.74, K 1.74, L 1.45, M 1.51, N 1.88, P 1.75, Q 2.02, R 2.46, S 1.52, T 1.73, V 2.97, W 1.87, Y 1.86
V14: A 2.23, D 2.35, E 2.7, F 3.73, G 2, H 2.27, I 2.23, K 2.4, M 1.67, N 1.73, P 2.21, Q 2.01, R 1.78, S 2.27, T 2.5, W 2.18, Y 1.59
W15: A 2.48, C 2.57, D 2.73, E 2.67, F 2.5, G 2.26, H 2.15, I 2.26, K 2.12, L 2.16, M 2.9, N 2.53, P 2.56, Q 2.73, R 2.6, S 2.7, T 2.85, V 2.76, Y 2.25
N16: A 1.72, C 1.73, D 2.45, E 2.75, F 2.04, G 1.05, H 1.74, I 1.99, K 2.25, L 1.91, M 1.74, P 1.75, Q 2.56, R 1.96, S 2.24, T 1.91, V 1.37, W 1.48, Y 1.89
K17: A 1.37, C 1.92, D 1.74, E 1.34, F 1.56, G 1.77, H 1.96, I 1.31, L 1.78, M 1.78, N 2.31, P 2.81, Q 1.84, R 2.21, S 1.79, T 1.55, V 1.9, W 2.78, Y 1.68
K18: A 1.93, C 1.72, D 1.95, E 2.41, F 1.38, G 2.04, H 2.35, I 1.24, L 1.67, M 1.46, N 1.98, P 1.97, Q 1.74, R 2.2, S 1.61, T 1.51, V 1.45, W 2.01, Y 1.94
G19: A 2.23, C 1.26, D 1.71, E 1.8, F 2.51, H 1.9, I 1.53, K 1.87, M 2.22, N 1.56, P 1.74, Q 2.4, R 2.05, S 1.7, T 2.14, V 1.71, W 1.84, Y 1.27
K20: A 1.82, C 1.17, D 1.64, E 1.78, G 1.79, H 2.71, I 1.88, L 1.96, M 1.8, N 1.77, P 2, Q 2.56, R 2.39, S 1.94, T 1.69, V 1.44, W 1.76, Y 1.48
K21: A 2.52, C 2.26, D 1.99, E 2.25, F 1.61, G 1.9, H 1.95, I 2.2, L 2.9, M 2.03, N 2.17, P 2.18, Q 1.77, R 2.49, S 2.28, T 2.45, V 1.9, W 1.72, Y 1.49
V22: A 2, C 2.13, D 2.86, E 2.34, F 2.4, G 2.58, H 2.46
